Data as given in publication PMC12152530, “Efficient One‐Step Production of 7S,17S‐ and 10S,17S‐Dihydroxydocosahexaenoic Acids by a Double‐Oxygenating 15S‐Lipoxygenase From Chlamydomonas incerta” (Biotechnology and Bioengineering, 2025).

Assays:
[1] = target: T1, V. carteri f. nagariensis LOX (D8U0N8) (Volvox carteri, UniProt D8U0N8); assay: product analysis after reaction with ARA; type: cell-based; conditions: enzyme preparation not stated; products HETE and DiHETE
T1 construct: gene VOLCADRAFT_105417; synthesized gene in pET-28a(+), expressed in E. coli ER2566
T1 sequence (D8U0N8 1-1056): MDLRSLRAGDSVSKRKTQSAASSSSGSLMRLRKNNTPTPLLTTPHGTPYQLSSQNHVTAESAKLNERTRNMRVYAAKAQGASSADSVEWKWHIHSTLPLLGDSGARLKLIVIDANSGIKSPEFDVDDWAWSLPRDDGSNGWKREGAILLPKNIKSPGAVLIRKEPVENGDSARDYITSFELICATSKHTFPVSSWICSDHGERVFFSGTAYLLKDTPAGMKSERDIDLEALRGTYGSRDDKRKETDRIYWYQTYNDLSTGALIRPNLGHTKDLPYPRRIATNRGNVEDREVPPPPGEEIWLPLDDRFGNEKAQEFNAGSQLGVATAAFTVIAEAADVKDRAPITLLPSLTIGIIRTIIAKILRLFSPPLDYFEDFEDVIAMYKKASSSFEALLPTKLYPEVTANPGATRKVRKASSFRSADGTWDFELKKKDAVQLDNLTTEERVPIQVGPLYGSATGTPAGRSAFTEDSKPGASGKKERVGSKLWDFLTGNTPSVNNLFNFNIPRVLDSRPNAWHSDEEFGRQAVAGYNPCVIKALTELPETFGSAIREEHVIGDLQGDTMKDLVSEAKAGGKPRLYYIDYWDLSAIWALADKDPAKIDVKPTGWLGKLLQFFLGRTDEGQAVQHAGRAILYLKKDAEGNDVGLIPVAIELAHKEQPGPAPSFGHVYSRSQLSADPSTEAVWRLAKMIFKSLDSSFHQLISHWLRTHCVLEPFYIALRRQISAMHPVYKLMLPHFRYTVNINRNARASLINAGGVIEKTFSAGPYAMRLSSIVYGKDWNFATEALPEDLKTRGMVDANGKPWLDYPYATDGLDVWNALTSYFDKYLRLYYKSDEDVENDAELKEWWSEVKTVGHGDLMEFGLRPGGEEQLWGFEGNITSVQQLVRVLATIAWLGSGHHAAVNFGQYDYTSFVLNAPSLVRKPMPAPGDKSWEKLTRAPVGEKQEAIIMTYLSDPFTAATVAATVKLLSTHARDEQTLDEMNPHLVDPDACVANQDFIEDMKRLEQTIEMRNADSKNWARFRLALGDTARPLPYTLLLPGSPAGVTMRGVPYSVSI

purified protein [2] = substrate: CC/C=C\C/C=C\C/C=C\C/C=C\C/C=C\C/C=C\CCC(=O)O; assay: purified protein; type: biochemical, Chlamydomonas incerta; conditions: 50 mM HEPPS pH 7.5, 35°C, 5 min, substrate 0.05-0.2 mM, product 17S-HDHA (first oxygenation)
purified protein [3] = substrate: CCCCC/C=C\C/C=C\C/C=C\C/C=C\CCCC(=O)O; assay: purified protein; type: biochemical, Chlamydomonas incerta; conditions: 50 mM HEPPS pH 7.5, 35°C, 5 min, substrate 0.05-0.2 mM, product 15S-HETE (first oxygenation)
purified protein [4] = substrate: CC/C=C\C/C=C\C/C=C\C/C=C\C/C=C\CCCC(=O)O; assay: purified protein; type: biochemical, Chlamydomonas incerta; conditions: 50 mM HEPPS pH 7.5, 35°C, 5 min, substrate 0.05-0.2 mM, product 15S-HEPA (first oxygenation)

CCCCC/C=C\C/C=C\C/C=C\C/C=C\CCCC(=O)O [ARA]
product analysis after reaction with ARA [1]: only those from V. carteri f. nagariensis (D8U0N8)

B1: C. incerta 15S-LOX (Chlamydomonas incerta) (protein)
chain: MNGAHSPGEVAVWKASIESSAPLLGDTGTRLEIVVIDLDTDRRSEPTNVDSWRPPVLESGPGSSTARSGASSGSGTSGWKREGRLPLPADFLTPGAVLVRKSRTVDGNASVDFIGTIKLVSATKVFHFPVHSWVSSDHDWRVFFEGTAYLPAHTPPSLRDERQRELQELQGTPATRTLERRPADRIYWYQTYDDLSSAGEGGYRPALGATARRPYPRRIATNRGAADGHPDREKPPVKAGDKPWLPYDEQFSFDKAADFNGDTLTAALPAAFSFIAEAGDQRHLTWLNLLPTAVHGLVRNVLRAVLGYAEPPAANFDSFEDVLAFFGEDAASRGSSMAPTQLYPAGQEAAMKGFGAPHDPRNPAPFKTASGAWDFRLNSAAAAAINDQIAADRVGPVPDSATGGPSSGAATAATAFAATAAAATAAGAPAAAITAPPQPGVPNLIGLLGSAVWRRLTNDPSHDINDLLYFPVPRVVDGRPDAWYTDEEYGRQALAGYHPTAITALTQLPEAFGSAIRAHHVEAELQGSSLEALVAAAAGGAKPRLYLIDHWDLSAYWQEAEEEAEAARKAGRKPPSAVQHAGRCLFYLRKDEVTGEDTALVPIAIELAHPGTHKASNGTSAPLPPTAGEVYARSELVASPQTLAVWRLAKAVFRSLDTSIHQLVAHFNRTHAALEPFLIAMRRQMSVMHPITKLMLPHFRYTLNINRNARASLINAGGIIEKTFSAGPFAMRLASAVYGKSWTFAGQALPEDLRERGMLDAAGRPWLDYPFAIDGLDTWAALTAYFDQYVSLYYDGDGAVLEDGELQAWWDEVKTEGHPDIVAFGLKSEQQVWGFTGPIAKRSDLVHVLATIAWLASGHHAAVNFGQYDFTGLILNASSLVRRPMPAPKEPAYKELTGAALGPPQERVFMTYLADPFSAVQVLATVKLLSAHARDEHTLDEANDYIVDPAAREANRAFIAAVKQLESAIETRNADPANWARYGLAAGTAAPLPYTLLMASSPPGVTMRGVPYSVSI
notes: synthesized gene in pET-28a(+), E. coli ER2566, His-Trap purified, His6 tag kept; 1016 residues plus six His, 109,248 (kDa [sic]), dimer 219 kDa
Km (purified protein [2]): 98.5 ± 0.1 µM | kcat (purified protein [2]): 121 ± 0.2 s⁻¹ | kcat/Km (purified protein [2]): 980000 ± 100000 M⁻¹ s⁻¹ | Km (purified protein [3]): 101 ± 0.02 µM | kcat (purified protein [3]): 149 ± 0.2 s⁻¹ | kcat/Km (purified protein [3]): 1.47e+06 ± 100000 M⁻¹ s⁻¹ | Km (purified protein [4]): 191 ± 0.1 µM | kcat (purified protein [4]): 143 ± 0.2 s⁻¹ | kcat/Km (purified protein [4]): 750000 ± 100000 M⁻¹ s⁻¹
